Experimental findings from patent US20250145710A1 (INTEGRAL MOLECULAR, published 2025) are described below.

Where a chain is given by its changes, count along the chain named.

Experiment [1] has as its target T1, human CLDN6 (human, UniProt P56747 1-220).
T1 construct: whole, on cells; Expressed on a CLDN-negative parental cell line, HEK293F cells or K562 cells by transfection; Endogenous on OV-90 and OVCAR3 cells; also called claudin 6; Claudin 6
T1 sequence (looked up): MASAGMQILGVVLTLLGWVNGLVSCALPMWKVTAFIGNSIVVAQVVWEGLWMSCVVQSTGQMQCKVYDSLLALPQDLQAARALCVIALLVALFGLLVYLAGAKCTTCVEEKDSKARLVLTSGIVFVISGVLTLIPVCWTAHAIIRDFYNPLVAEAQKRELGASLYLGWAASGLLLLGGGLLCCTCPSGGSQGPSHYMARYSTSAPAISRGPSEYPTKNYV
Briefly: flow cytometry on a CLDN negative parental cell line transfected with CLDN6, CLDN4, CLDN3 or CLDN9 (FIG. 12A).

The target of another experiment is T2, human CLDN9 (human, UniProt O95484 1-217).
T2 construct: whole, on cells; also called claudin 9
T2 sequence (looked up): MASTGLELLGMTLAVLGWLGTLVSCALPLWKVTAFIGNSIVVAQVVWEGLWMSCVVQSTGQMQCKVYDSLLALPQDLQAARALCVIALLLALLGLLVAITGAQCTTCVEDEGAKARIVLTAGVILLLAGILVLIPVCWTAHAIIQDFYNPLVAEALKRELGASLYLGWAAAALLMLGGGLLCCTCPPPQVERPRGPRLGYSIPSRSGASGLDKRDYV
The experiment in a line: binding to cells expressing CLDN9 (FIG. 33B, FIG. 34 text).

The target in the next experiment is T3, human CLDN4 (human, UniProt O14493 1-209).
T3 construct: whole, on cells; also called claudin 4
T3 sequence (looked up): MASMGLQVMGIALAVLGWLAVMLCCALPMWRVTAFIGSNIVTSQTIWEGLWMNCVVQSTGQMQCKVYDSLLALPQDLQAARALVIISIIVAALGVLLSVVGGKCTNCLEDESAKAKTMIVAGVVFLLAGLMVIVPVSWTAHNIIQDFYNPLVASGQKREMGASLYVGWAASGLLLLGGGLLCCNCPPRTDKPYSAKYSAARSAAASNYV
Briefly: binding to cells expressing CLDN4 (FIG. 34 text).

The target of the next experiment is T4, human CLDN3 (human, UniProt O15551 1-220).
T4 construct: whole, on cells; also called claudin 3
T4 sequence (looked up): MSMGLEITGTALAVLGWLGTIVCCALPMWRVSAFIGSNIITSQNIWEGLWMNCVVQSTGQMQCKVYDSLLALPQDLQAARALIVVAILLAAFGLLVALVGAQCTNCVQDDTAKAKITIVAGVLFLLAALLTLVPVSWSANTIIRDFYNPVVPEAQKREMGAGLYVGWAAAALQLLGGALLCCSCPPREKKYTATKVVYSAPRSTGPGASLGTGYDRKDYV
The experiment in a line: binding to cells expressing CLDN3 (FIG. 34 text).

Experiment [2] addresses T1, human CLDN6. Briefly: cell-based or functional assay.
Experiment [3] has as its target T1, human CLDN6. The experiment in a line: flow cytometry on a CLDN negative parental cell line transfected with CLDN6, CLDN4, CLDN3 or CLDN9 (FIG. 12D).
Experiment [4] has as its target T1, human CLDN6. Briefly: flow cytometry on a CLDN negative parental cell line transfected with CLDN6, CLDN4, CLDN3 or CLDN9 (FIG. 12C).

B1: IMC-2-7 tandem scFv antibody (bispecific antibody)
scFv: SYELTQPPSVSVSPGQTARITCSAGSGLYGWYQQKPGQAPVLVIYGTNKRPSGIPERFSGSSSGTTVTLTISGVQAEDEADYYCGSADSSTNAGIFGGGTKLTVLGGGGSGGGGSGGGGSEVQLLESGGGLVQPGGSLRLSCAASGFTFSSYAMNWVRQAPGKGLEWVAGISSSGRYTGYADSVKGRFTISRDNSKNTLYLQMNSLRAEDTAVYYCAKSVGSGVSWSGYVATSLDAWGQGTLVTVSSGGGGSEVQLVESGGGLVQPGGSLRLSCAASGFTFSTYAMNWVRQAPGKGLEWVGRIRSKYNNYATYYADSVKGRFTISRDDSKNTLYLQMNSLRAEDTAVYYCVRHGNFGDSYVSWFAYWGQGTLVTVSSGKPGSGKPGSGKPGSGKPGSQAVVTQEPSLTVSPGGTVTLTCGSSTGAVTTSNYANWVQQKPGKSPRGLIGGTNKRAPGVPARFSGSLLGGKAALTISGAQPEDEADYYCALWYSNHWVFGGGTKLTVL
notes: A single-chain tandem scFv (anti-CLDN6 scFv, then anti-CD3 scFv)
B1: the binding result with human CLDN6 [1] is given as “binds”.

B2: IMC-16-3 scFv-Fab IgG antibody (bispecific antibody)
heavy: EVQLLESGGGLVQPGGSLRLSCAASGFTFSSYAMNWVRQAPGKGLEWVAGISSSGRYTGYADSVKGRFTISRDNSKNTLYLQMNSLRAEDTAVYYCAKSVGSGVSWSGYVATSLDAWGQGTLVTVSSASTKGPSVFPLAPSSKSTSGGTAALGCLVKDYFPEPVTVSWNSGALTSGVHTFPAVLQSSGLYSLSSVVTVPSSSLGTQTYICNVNHKPSNTKVDKKVEPKSCDKTHTCPPCPAPEAAGGPSVFLFPPKPKDTLMISRTPEVTCVVVDVSHEDPEVKFNWYVDGVEVHNAKTKPREEQYNSTYRVVSVLTVLHQDWLNGKEYKCKVSNKALPAPIEKTISKAKGQPREPQVYTLPPSREEMTKNQVSLWCLVKGFYPSDIAVEWESNGQPENNYKTTPPVLDSDGSFFLYSKLTVDKSRWQQGNVFSCSVMHEALHNHYTQKSLSLSPGK
light: SYELTQPPSVSVSPGQTARITCSAGSGLYGWYQQKPGQAPVLVIYGTNKRPSGIPERFSGSSSGTTVTLTISGVQAEDEADYYCGSADSSTNAGIFGGGTKLTVLGQPKAAPSVTLFPPSSEELQANKATLVCLISDFYPGAVTVAWKADSSPVKAGVETTTPSKQSNNKYAASSYLSLTPEQWKSHRSYSCQVTHEGSTVEKTVAPTECS
scFv: EVQLVESGGGLVQPGGSLRLSCAASGFTFSTYAMNWVRQAPGKGLEWVGRIRSKYNNYATYYADSVKGRFTISRDDSKNTLYLQMNSLRAEDTAVYYCVRHGNFGDSYVSWFAYWGQGTLVTVSSGKPGSGKPGSGKPGSGKPGSQAVVTQEPSLTVSPGGTVTLTCGSSTGAVTTSNYANWVQQKPGKSPRGLIGGTNKRAPGVPARFSGSLLGGKAALTISGAQPEDEADYYCALWYSNHWVFGGGTKLTVLASPKSSDKTHTCPPCPAPEAAGGPSVFLFPPKPKDTLMISRTPEVTCVVVDVSHEDPEVKFNWYVDGVEVHNAKTKPREEQYNSTYRVVSVLTVLHQDWLNGKEYKCKVSNKALPAPIEKTISKAKGQPREPQVYTLPPSREEMTKNQVSLSCAVKGFYPSDIAVEWESNGQPENNYKTTPPVLDSDGSFFLVSKLTVDKSRWQQGNVFSCSVMHEALHNHYTQKSLSLSPGK
notes: also called IMC-16-3 scFv-Fab IgG bispecific antibody
Regarding B2, the binding result with human CLDN9, in the experiment with human CLDN4 and with human CLDN3 was “no binding” throughout. Moreover, the “cytokine activation assay (IL-6, IL-2, TNF-alpha, IL-8) in human PBMC co-cultured with K562 cells” value with human CLDN6 [2] was ~10 fold more potent than RefMAB #3. Further, the “cytotoxicity assay in OV-90 ovarian cancer cells with human PBMC, two Effector:Target ratios” value with human CLDN6 [2] was ~10 fold more potent than RefMAB #3.

B3: IMC-21-1 IgG-(scFv)2 antibody (bispecific antibody)
heavy: not shown
light: B2 light
notes: also called MC-21-1 antibody
Take B3: the binding result in the experiment with human CLDN6 [3] is on record as “binds”.

B4: IMC-16-15 scFv-Fab IgG antibody (bispecific antibody)
heavy: B2 heavy with V100M, L114I, A116V
light: B2 light
scFv: B2 scFv
Take B4: in the experiment with human CLDN6 [4], the binding result is on record as “binds”.
